Results reported in publication PMC4278678 (Biochemistry, 2014).
Substitutions are numbered along the chain they refer to. Names and notes keep the numbering of the source. Where two headings read alike, the source gives them in different places.

B1: FLAG-tagged 7xAla/L107C NEMO (natural protein, human, UniProt Q9Y6K9 1-419, looked up)
chain: MNRHLWKSQLAEMVQPSGGPAADQDVLGEESPLGKPAMLHLPSEQGAPETLQRALEENQELRDAIRQSNQILRERAEELLHFQASQREEKEFLMAKFQEARKLVERCGLEKLDLKRQKEQALREVEHLKRAQQQMAEDKASVKAQVTSLLGELQESQSRLEAATKEAQALEGRARAASEQARQLESEREALQQQHSVQVDQLRMQGQSVEAALRMERQAASEEKRKLAQLQVAYHQLFQEYDNHIKSSVVGSERKRGMQLEDLKQQLQQAEEALVAKQEVIDKLKEEAEQHKIVMETVPVLKAQADIYKADFQAERQAREKLAEKKELLQEQLEQLQREYSKLKASAQESARIEDMRKRHVEVSQAPLPPAPAYLSSPLALPSQRRSPPEEPPDFCCPKCQYQAPDMDTLQIHVMECIE
B2: 9xHis-SUMO-NEMO(1–120)(des3C/C54), oxidised covalent dimer (domain or fragment, human, UniProt Q9Y6K9 1-120, looked up)
chain: MNRHLWKSQLAEMVQPSGGPAADQDVLGEESPLGKPAMLHLPSEQGAPETLQRCLEENQELRDAIRQSNQILRERAEELLHFQASQREEKEFLMAKFQEARKLVERLGLEKLDLKRQKEQ
modifications: interchain disulfide bond at Cys54
B3: 9xHis-SUMO-NEMO(1–120)(des4C/L107C), covalent dimer (domain or fragment, human, UniProt Q9Y6K9 1-120, looked up)
chain: B2 chain with C54A, L107C
modifications: interchain disulfide bond at Cys107
B4: 9xHis-SUMO-NEMO(1–120)(des3C/C54/L107C), covalent dimer (domain or fragment, human, UniProt Q9Y6K9 1-120, looked up)
chain: B2 chain with L107C
modifications: interchain disulfide bonds at Cys54 and Cys107
B5: 9xHis-SUMO-NEMO(44–111)(des3C/L107C), covalent dimer (domain or fragment, human, UniProt Q9Y6K9 44-111, looked up)
chain: {9xHis‑SUMO}-EQGAPETLQRALEENQELRDAIRQSNQILRERAEELLHFQASQREEKEFLMAKFQEARKLVERCGLEK
modifications: also: covalent dimer via interchain disulfide at Cys107
B6: 9xHis-SUMO-NEMO(44–111)(des2C/C54/L107C), covalent dimer (domain or fragment, human, UniProt Q9Y6K9 44-111, looked up)
chain: {9xHis‑SUMO}-EQGAPETLQRCLEENQELRDAIRQSNQILRERAEELLHFQASQREEKEFLMAKFQEARKLVERCGLEK
modifications: also: covalent dimer via interchain disulfides at Cys54 and Cys107
B7: 9xHis-SUMO-NEMO(44–111)(des2C/C54), covalent dimer (domain or fragment, human, UniProt Q9Y6K9 44-111, looked up)
chain: {9xHis‑SUMO}-EQGAPETLQRCLEENQELRDAIRQSNQILRERAEELLHFQASQREEKEFLMAKFQEARKLVERLGLEK
modifications: also: covalent dimer via interchain disulfide at Cys54

Experiments:
[1] = molecular target: the molecule itself; assay: cross-linking
[2] = molecular target: the molecule itself; assay: cross-linking; remark: listed apart in the source

| Protein | stoichiometry N [1] | stoichiometry N [2] |
| --- | --- | --- |
| B1 | 2 |  |
| B2 |  | 2 |
| B3 |  | 2 |
| B4 |  | 2 |
| B5 |  | 2 |
| B6 |  | 2 |
| B7 |  | 2 |
